Percent dimers and stoichiometry N data for 1 substance are collected here from paper PMC10754921.

This test deals with FMC63-scFv (VL - Whitlow linker - VH, C-terminal His8 tag) (mouse). Kind of test: SEC-MALS; 25 µg injected, Superdex 200 Increase 10/300 GL, PBS with additional 200 mM NaCl, pH 7.4, 25 °C. (Size exclusion chromatography separates by hydrodynamic size, large species first.)

In turn, “FMC63-scFv (VL - Whitlow linker - VH, C-terminal His8 tag)” registered a percent dimers of 20% and a stoichiometry N of 2.

By stoichiometry N is commonly meant a count of units in the complex or per binding partner.
